Source: patent US20180142016A1

B1: P601-153 (scFv, from another filing, V domains shown)
VH: QMQLVQSGAEVKKPGASVKVSCKASGYTFTSYYMHWVRQAPGQGLEWMGIINPSGGSTSYAQKFQGRVTMTRDTSTSTVYMELSSLRSEDTAVYYCARGGYTGWSPSDPWGQGTLVTVSS
VL: QSALTQPASVSGSPGQSITISCTGTSSDVGGYNYVSWYQQHPGKAPKFMIYDVSKRPSGVSNRFSGSKSGNTASLTISGLQAEDEADYYCGSFTSSITYVFGTGTKVTVL
B2: P601-149 (scFv, from another filing, V domains shown)
VH: EAQLVESGGGLVKPGGSLRLSCAASGFTFSDYYMGWVRQAPGKGLKWLSYISDRAHTIYDTDSVKGRFTISRDDAKSSLYLRMNNLRVEDTAVYYCARAVGAGEGFDYWGQGTLVTVSS
VL: DIQLTQSPSSLSASVGDRVTITCQASQDVRNYLNWYQQKPGKAPNLLIYDATNLESGVPSRFSGSGSGTDFTFTISSLQPEDFATYYCQQYDNLPLSFGGGTKVEIK
B3: P601-128 (scFv, from another filing, V domains shown)
VH: EVQLVQSGAEVKKPGESLKISCKGSGYSFSRYWIGWVRQMPGKGLEWMGIIYPRDSDTRYSPSFQGQVTISADKSISTAYLQWSSLKASDTAMYYCATPVVTAGAFDIWGQGTMVTVSS
VL: DIQMTQSPSSVSASVGDRVTITCRASQGISSWLAWYQQKPGKAPKLLIYAASSLQSGVPSRFSGSGSGTDFTLTISSLQPEDFATYYCQQANSFPLTFGGGTKVEIK

The binders below were run against human ROR1 extracellular domain (ECD) protein (human) (UniProt Q01973) (assay: competitive phage ELISA, soluble vs coated ROR1).
human ROR1 extracellular domain (ECD) protein (human), sequence (Q01973 30-406 limits assumed): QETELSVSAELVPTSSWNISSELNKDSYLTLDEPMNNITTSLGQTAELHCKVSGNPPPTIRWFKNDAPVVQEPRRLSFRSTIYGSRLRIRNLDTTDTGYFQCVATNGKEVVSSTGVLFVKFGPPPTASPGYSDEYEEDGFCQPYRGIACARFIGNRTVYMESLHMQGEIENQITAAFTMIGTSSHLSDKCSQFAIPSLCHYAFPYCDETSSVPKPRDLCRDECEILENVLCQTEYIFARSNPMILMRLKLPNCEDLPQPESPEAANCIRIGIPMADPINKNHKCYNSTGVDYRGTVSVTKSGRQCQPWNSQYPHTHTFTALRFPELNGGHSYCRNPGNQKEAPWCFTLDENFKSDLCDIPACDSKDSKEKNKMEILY

In order of falling IC50:
1. B3  263 nM
2. B2  2.76 nM
3. B1  1.53 nM
